System: MBP expression
Assay: HD-DoE 8-factor model (stage 4), optimized for maximum expression of MBP
Assay type: cell-based, human
Settings: model optimized for MBP at 274; FIG. 6

B1: NT-3: neurotrophin-3, a Trk C pathway agonist (protein, UniProt P20783 139-257, looked up)
Neurotrophin-3: YAEHKSHRGEYSVCDSESLWVTDKSSAIDIRGHQVTVLGEIKTGNSPVKQYFYETRCKEARPVKNGCRGIDDKHWNSQCKTSQTYVRALTSENNKLVGWRWIRIDTSCVCALSRKIGRT
factor contribution, positive impact on MBP expression: 12.1
